The target of this data set is T1, ICBP-59 (Homo sapiens, UniProt Q96T88 SEQ:263-793).
T1 chain: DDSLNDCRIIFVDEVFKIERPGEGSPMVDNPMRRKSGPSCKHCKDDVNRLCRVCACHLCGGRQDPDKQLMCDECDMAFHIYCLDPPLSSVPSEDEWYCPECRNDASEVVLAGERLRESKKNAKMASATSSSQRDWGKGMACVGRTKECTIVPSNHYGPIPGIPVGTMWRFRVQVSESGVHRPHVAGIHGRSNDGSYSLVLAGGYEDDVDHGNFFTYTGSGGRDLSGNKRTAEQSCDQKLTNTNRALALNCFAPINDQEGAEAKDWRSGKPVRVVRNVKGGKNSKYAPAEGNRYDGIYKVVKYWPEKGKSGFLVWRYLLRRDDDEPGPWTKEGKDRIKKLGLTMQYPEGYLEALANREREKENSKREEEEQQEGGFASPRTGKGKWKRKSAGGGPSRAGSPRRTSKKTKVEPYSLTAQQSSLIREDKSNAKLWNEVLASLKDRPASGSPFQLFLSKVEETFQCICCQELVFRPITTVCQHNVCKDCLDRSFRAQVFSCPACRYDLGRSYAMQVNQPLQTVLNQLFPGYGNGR
Put plainly: EMSA; 12 mM HEPES-NaOH pH 7.9, 60 mM KCl, 4 mM Tris-HCl, 12% glycerol, poly(dI/dC), room temperature. As to conditions: tags: GST fusion (pGEX-4T-1), GST cleaved with thrombin; label: 32P; cohesive EcoRI/XbaI ends. The protocol:
The ICBP-59 protein (1 μg) was incubated with 1 ng of oligonucleotide and labelled at its terminal end by phosphorous ³²P in 12% glycerol, 12 mM HEPES-NaOH (pH 7.9), 60 mM KCl, 4 mM Tris-HCl (pH 7.9), 100 ng BSA, 0.6 mM DTT, and 100 ng poly(dI/dC) in 20 μl (Inouye et al., 1994). After a 30-minutes incubation at room temperature, the reaction mix was loaded in 6% polyacrylamide gels. In competition experiments, the quantity indicated of non-labelled oligonucleotides were added to the reaction mix 10 minutes before the addition of proteins. To examine the binding properties of ICBP90 with regard to the ICB2 box, we used the same protocol except that labelled oligonucleotide contained only one copy of the CCAAT sequence as described below: […]
For orientation: Mobility shift assays separate free from complexed probe on a gel.

B1: ICB2X3 (dsDNA)
DNA 1: AATTCGATTGGTTCTGATTGGTTCTGATTGGTTCTT
DNA 2: CTAGAAGAACCAATCAGAACCAATCAGAACCAATCG
For B1, the binding result is given as “binds”.
